Data from patent US20220332804A1 (CSL INNOVATION, published 2022).
Substitutions are numbered along the chain they refer to.

Key:
Test in all cases: SPR, KD relative to WT C2;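 further: biacore SPR at 37 °C, anti-C2 mAbs captured via immobilised goat anti-human IgG, C2 alanine or serine surface mutants as analytes, 1:1 model fitted, double-referenced sensograms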
human C2 V448A = target: T1, human C2 V448A (human, UniProt P06681 21-752)
T1 sequence: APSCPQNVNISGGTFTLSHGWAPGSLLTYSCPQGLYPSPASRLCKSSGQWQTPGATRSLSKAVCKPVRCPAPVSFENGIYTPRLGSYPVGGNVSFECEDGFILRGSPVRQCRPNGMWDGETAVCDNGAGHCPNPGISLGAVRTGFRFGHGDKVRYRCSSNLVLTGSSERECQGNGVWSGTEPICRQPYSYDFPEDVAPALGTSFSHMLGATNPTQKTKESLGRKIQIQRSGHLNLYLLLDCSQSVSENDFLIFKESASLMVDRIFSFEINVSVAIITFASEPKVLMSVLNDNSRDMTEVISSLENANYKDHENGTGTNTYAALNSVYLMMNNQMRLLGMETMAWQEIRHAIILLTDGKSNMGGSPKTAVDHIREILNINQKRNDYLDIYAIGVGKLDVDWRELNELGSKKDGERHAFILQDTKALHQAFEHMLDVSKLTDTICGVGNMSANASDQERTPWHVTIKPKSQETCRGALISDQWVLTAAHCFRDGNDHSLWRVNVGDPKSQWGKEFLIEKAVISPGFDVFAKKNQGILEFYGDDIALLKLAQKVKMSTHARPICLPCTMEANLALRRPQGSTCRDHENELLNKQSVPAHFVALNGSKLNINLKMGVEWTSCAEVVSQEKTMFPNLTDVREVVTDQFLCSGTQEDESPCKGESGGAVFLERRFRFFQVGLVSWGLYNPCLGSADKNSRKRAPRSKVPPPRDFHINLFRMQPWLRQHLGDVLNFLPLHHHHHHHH
Procedure: (§1) Surface plasmon resonance (SPR, Biacore) was used for all binding affinity analyses. In brief, goat anti-human IgG was directly immobilised onto the carboxymethyl dextran surface of CM5 sensorchips to approximately 12,000 RU using standard NHS/EDC chemistry at pH 5. The immobilised antibody surface was pre-conditioned with ten injections of polyclonal human IgG (Privigen 60 s) prepared at 1 μg/mL. Ligands (anti-C2 mAbs) were captured at the beginning of each cycle as described below. An adjacent spot or flow cell in which only Polyclonal IgG was capture was used as a reference surface. The goat anti-human IgG Fc antibody surface was regenerate in 100 mM H3PO4, injected for 45 seconds at the end of each cycle. Experiments were performed at 37° C. and the flow rate of each experiment was kept constant at 30 μL/min.
(§2) Sensogram data was double-referenced against a reference anti-IgG surface (i.e. minus anti-C2 mAb) and blank buffer injections obtained within each experiment. The binding data was fit to 1:1 (kinetic or steady-state) model using local Rmax and null refraction index (RI=0) when appropriate. Buffers and solutions were filtered (0.22 μm) prior to use.

human C2 V455A = target: T2, human C2 V455A (human, UniProt P06681 21-752)
T2 sequence: T1 sequence with A428V, V435A
Procedure: as §1, §2

human C2 E433A = target: T3, human C2 E433A (human, UniProt P06681 21-752)
T3 sequence: T1 sequence with E413A, A428V
Procedure: as §1, §2

human C2 Y558A = target: T4, human C2 Y558A (human, UniProt P06681 21-752)
T4 sequence: T1 sequence with A428V, Y538A
Procedure: as §1, §2

B1: RF16-226 (antibody, human IgG4 S228P, lambda)
heavy: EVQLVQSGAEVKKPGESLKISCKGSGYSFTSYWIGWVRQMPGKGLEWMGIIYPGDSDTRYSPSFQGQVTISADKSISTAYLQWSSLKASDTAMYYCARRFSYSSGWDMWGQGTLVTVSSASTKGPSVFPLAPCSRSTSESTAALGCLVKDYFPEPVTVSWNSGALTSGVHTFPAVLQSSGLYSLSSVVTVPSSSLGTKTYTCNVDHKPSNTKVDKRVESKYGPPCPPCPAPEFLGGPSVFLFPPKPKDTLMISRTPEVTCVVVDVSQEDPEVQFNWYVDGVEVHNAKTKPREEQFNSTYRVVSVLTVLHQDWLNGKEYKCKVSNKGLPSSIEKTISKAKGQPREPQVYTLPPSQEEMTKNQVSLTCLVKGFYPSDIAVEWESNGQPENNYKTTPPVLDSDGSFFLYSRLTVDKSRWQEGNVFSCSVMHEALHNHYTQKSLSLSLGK
light: SYELTQPPSVSVSPGQTARITCSGDALTSKYVAWYQQKSGLAPLLVIYEDTRRPSGIPAKFSGSSSGSVATLTISGAHGDDEADYYCYSTDASGHQRVFGGGTKLTVLSQPKAAPSVTLFPPSSEELQANKATLVCLISDFYPGAVTVAWKADGSPVKAGVETTKPSKQSNNKYAASSYLSLTPEQWKSHRSYSCQVTHEGSTVEKTVAPTECS
notes: pH-dependent anti-C2 antibody from a phage display library; also called WT
Q: How did the Fold diff (human C2 V448A) turn out when B1 was run?
A: The Fold diff was 0 fold.

Q: What about the Fold diff (human C2 V455A) of the same binder?
A: Its Fold diff is 1 fold.

Q: What about the Fold diff (human C2 E433A) of the same binder?
A: The Fold diff was 0 fold.

Q: What about the Fold diff (human C2 Y558A) of the same binder?
A: Its Fold diff is 16 fold.
